Assay results as given in PMC10238420, “Altered Signaling and Desensitization Responses in PTH1R Mutants Associated with Eiken Syndrome” (Communications Biology, 2023).

Columns and labels:
[1] = molecular target: PTH1R-Y134S (human PTH1R with an HA tag) (human) (UniProt Q03431); assay: radioligand binding; total binding of ^125I-PTHrP(1-36) (20,000-30,000 cpm/well) to confluent monolayers of intact, transiently transfected Gs22a cells in 96-well plates; HB (Hanks balanced salt solution, 10 mM HEPES pH 7.4, 0.1% BSA); one hour at room temperature
[2] = molecular target: PTH1R-E35K (human PTH1R with an HA tag) (human) (UniProt Q03431); assay: as above
[3] = molecular target: human PTH1R-WT with an HA tag (parathyroid hormone receptor type 1) (human) (UniProt Q03431)
[4] = molecular target: PTH1R-R485X (human PTH1R with an HA tag, C-terminal tail truncated at R485) (human) (UniProt Q03431)

Chain of β-arrestin2-renilla luciferase (rLucII) (P32121 whole entry): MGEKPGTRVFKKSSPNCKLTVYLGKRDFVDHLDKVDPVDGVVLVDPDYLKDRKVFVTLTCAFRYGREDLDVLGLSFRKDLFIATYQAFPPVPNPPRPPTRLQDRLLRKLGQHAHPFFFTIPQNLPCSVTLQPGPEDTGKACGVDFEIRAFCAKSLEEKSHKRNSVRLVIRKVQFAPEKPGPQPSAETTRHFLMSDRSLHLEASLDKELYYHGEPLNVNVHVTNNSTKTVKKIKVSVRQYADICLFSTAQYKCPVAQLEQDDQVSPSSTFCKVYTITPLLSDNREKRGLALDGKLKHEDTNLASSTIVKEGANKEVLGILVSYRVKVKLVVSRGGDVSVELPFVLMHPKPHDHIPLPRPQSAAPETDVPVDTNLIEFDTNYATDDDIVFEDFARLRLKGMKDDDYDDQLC
Chain of ^125I-PTHrP(1-36) (peptide) (P12272 37-72): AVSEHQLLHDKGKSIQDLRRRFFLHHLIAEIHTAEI

| reduction of total binding relative to PTH1R-WT [1] | reduction of total binding relative to PTH1R-WT [2] | PTH(1-34)-induced recruitment of β-arrestin2^rLucII to endosomes (BRET with rGFP-FYVE), fold-BRET increase from baseline [3] | PTH(1-34)-induced recruitment of β-arrestin2^rLucII to the plasma membrane (BRET with rGFP-CAAX), fold-BRET increase from baseline [3] | PTH(1-34)-induced recruitment of β-arrestin2^rLucII to endosomes (BRET with rGFP-FYVE), fold-BRET increase from baseline [4] | PTH(1-34)-induced recruitment of β-arrestin2^rLucII to the plasma membrane (BRET with rGFP-CAAX), fold-BRET increase from baseline [4] | Substance |
| --- | --- | --- | --- | --- | --- | --- |
| 50% | 50% | – | – | – | – | ^125I-PTHrP(1-36) (peptide) |
| – | – | 6.08 fold | 4.79 fold | 1.33 fold | 2.69 fold | β-arrestin2-renilla luciferase (rLucII) (from UniProt P32121 1-409) (natural protein) |
